Results published in paper PMC11968277, “Sulfoglycolysis sustains Eubacterium rectale in low-fiber diets” (The Journal of Biological Chemistry, 2025).
Each block holds one molecule with its values, some of them ahead of it.

Columns and labels:
[1] = target: Bacillus megaterium SqvB (DUF4867 family member) (Bacillus megaterium); experiment: SEC-MALS; SEC-MALLS; 100 ul injected at 2.7 mg/mL; running buffer 50 mM Tris pH 7.5, 300 mM NaCl; room temperature (20 ± 2 °C)
purified protein = substrate: O=[N+]([O-])c1ccc(O[C@H]2O[C@H](CS(=O)(=O)O)[C@@H](O)[C@H](O)[C@H]2O)cc1; experiment: purified protein; format: biochemical, Agathobacter rectalis; conditions: PBS (50 mM sodium phosphate, 150 mM NaCl), pH 6.5, 30 °C

stoichiometry N [1]: 2
Molecule: Bacillus megaterium SqvB (DUF4867 family member) (natural protein)

B1: SftG (E. rectale SftG SQase) (Agathobacter rectalis ATCC 33656) (protein)
chain: MQIKVNDNEFQLFVGEKRILEHSKERPMIYVGVGQEDVDMYRGNFKITDYVTERFPLKLTDVIQTADTVRLCFESYIIAKIKCDENLCTIDFEQKDDRINRFWFRVAADKEEKCYGCGEQMSYFNLRGRNFPIWTSEPGVGRDKTTYVTWRSDVENKAGGDYYNTNYPQPTFVSTNKYYLHVDSTAYADFDFRNDSFHELQIWEVPKQIRIECADTYLKLLERITTYFGRQPKLPDWVYNGLIIGVQGGNERSFGLLDKTLDRNIKVAGIWCQDWCGKRVTSFGKRLQWDWKYHKEMYPDLPKKIKEINAKGIKFLGYVNPYLVNDGELYKEGKEKGYFATKADGSDYLVDFGEFYCGVVDLTNPEAFEWFKDIIKEYTLGIGIDGWMADFGEYLPTDDICLYSGKSPMIEHNHWPVLWAKCNYEAVKESGKLGDVVYFMRAGGAGSQKYCTLLWAGDQSVDFTIHDGLASVICGALSAGMMGCGLTHSDIGGYTSLFDNTRTKELFLRWAEMAMFTPFMRTHEGNRPDTNFQYYDDEDTMERLARLVDVYTMLAPYTKTLVEENADSGHPVQRPLFMHYESDAKAYDIQYEYLFGRDMLIAPVYEQDKHEWDVYLPQDEWVHLWTGEEYHGGEITVSAELGYTPAFYRKNSEFADIFEEIREKYGVK
notes: codon-optimised gene in pET29a(+), C-terminal His6 tag, expressed in E. coli NEB T7 Express
Km (purified protein): 478 ± 30 µM
kcat (purified protein): 78.8 ± 3.9 s⁻¹
kcat/Km (purified protein): 165000 ± 18000 M⁻¹ s⁻¹
